Laboratory results reported in article PMC7138811.

Target: T1, ASIC1a (human (endogenous in U251 MG, A172, A549)) (UniProt P78348)
T1 sequence: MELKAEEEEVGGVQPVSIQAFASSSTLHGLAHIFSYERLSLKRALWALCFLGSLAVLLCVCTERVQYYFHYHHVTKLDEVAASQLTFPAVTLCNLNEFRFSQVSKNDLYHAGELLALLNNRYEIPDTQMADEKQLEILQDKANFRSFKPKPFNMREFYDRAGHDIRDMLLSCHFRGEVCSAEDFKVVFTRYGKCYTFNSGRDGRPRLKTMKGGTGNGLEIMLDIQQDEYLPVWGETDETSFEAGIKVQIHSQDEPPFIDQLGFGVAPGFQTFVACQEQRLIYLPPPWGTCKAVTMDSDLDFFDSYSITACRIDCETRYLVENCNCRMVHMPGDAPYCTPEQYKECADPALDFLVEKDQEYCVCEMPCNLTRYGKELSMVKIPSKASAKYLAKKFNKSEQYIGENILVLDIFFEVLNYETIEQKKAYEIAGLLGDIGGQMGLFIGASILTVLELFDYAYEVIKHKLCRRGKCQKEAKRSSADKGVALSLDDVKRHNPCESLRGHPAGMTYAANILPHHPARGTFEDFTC

B1: recombinant mambalgin-2 (peptide)
chain: LKCFQHGKVVTCHRDMKFCYHNTGMPFRNLKLILQGCSSSCSETENNKCCSTDRCNK
- growth of A172 glioma cells expressing the ASIC1a subunit, EC50: 10 nM
- growth of A549 lung carcinoma cells expressing the ASIC1a subunit, EC50: 8 nM
- growth of U251 MG glioma cells expressing the ASIC1a subunit, EC50: 0.9 nM
